In data set [1] the target is PS2 S-layer protein, ex vivo S-layer fragments from C. glutamicum ATCC13032 icd::cspB (C. glutamicum). Kind of data set: cryo-EM structure; ex vivo PS2 S-layer fragments, 0.02% DDM added before plunging, tilted images at 15° and 30°, single-particle reconstruction with C6 symmetry; lattice of hexamers (C6) joined by trimeric (C3) contacts.
Data set [2] concerns the molecule itself. Kind of data set: negative-stain electron microscopy of isolated S-layer sheets; isolated S-layer sheets (cleared SDS extractions of C. glutamicum; washed recombinant sheets from E. coli); lattice seen in the power spectrum; sheets also kept after incubation with 10 mM EDTA.

Experimental findings from article PMC12337289, “Cryo-EM structure and polar assembly of the PS2 S-layer of Corynebacterium glutamicum” (Proceedings of the National Academy of Sciences of the …, 2025) are described below.

Consider “PS2 S-layer protein, ex vivo S-layer fragments from C. glutamicum ATCC13032 icd::cspB (natural protein)”, for which, in data set [1], the stoichiometry N was found to be 6.

B1: PS2 assembly domain (PS2^AD; residues 30 to 483), recombinant (domain or fragment, C. glutamicum, UniProt Q04985 30-483, looked up)
chain: AQETNPTFNITNGFNDADGSTIQPVGPVNHTEETLRDLTDSTGAYLEEFQNGTVEEIVEAYLQVQASADGFDPSEQAAYEAFEAARVRASQELAASAETITKTRESVAYALKVDQEATAAFEAYRNALRDAAISINPDGSINPDTSINLLIDAANAANRTDRAEIEDYAHLYTQTDIALETPQLAYAFQDLKALQAEVDADFEWLGEFGIDQEDGNYVQRYHLPAVEALKAEVDARVAAIEPLRADSIAKNLEAQKSDVLVRQLFLERATAQRDTLRVVEAIFSTSARYVELYENVENVNVENKTLRQHYSALIPNLFIAAVANISELNAADAEAAAYYLHWDTDLATNDEDEAYYKAKLDFAIETYAKILFNGEVWQEPLAYVQNLDAGARQEAADREAARAADEAYRAEQLRIAQEAADAQKAIAEALAKEAEGNNDNSSDNTETGSSDIGS
notes: PS2 (cspB) of C. glutamicum, residues 30 to 483; the membrane anchoring domain is replaced by a hexahistidine tag; Vector pASK-IBA3plus; also called recombinant soluble PS2^AD; plasmid A231; source: E. coli BL21 (DE3) cytoplasm, gel-like pelleted fraction, washed with 1% DDM and SEC buffer; not shown: hexahistidine, C-terminal, kept
With B1, the binding result in data set [2] is listed as “binds”.
